Measurements from article PMC11742319, “Phosphorylation regulates the chromatin remodeler SMARCAD1 in nucleosome binding, ATP hydrolysis, and histone exchange”.

What was measured:
[1] = biological target: T1, 23A SMARCAD1, dephosphorylated (human) (UniProt Q9H4L7); assay: fluorescence polarization; details: FP: 50 mM HEPES pH 7.5, 2 mM DTT, 10% glycerol, 0.01% CHAPS, 0.01% NP-40, no added salt stated, room temperature 30 min, 10 nM nucleosome or DNA, 0-5 uM …
T1 sequence: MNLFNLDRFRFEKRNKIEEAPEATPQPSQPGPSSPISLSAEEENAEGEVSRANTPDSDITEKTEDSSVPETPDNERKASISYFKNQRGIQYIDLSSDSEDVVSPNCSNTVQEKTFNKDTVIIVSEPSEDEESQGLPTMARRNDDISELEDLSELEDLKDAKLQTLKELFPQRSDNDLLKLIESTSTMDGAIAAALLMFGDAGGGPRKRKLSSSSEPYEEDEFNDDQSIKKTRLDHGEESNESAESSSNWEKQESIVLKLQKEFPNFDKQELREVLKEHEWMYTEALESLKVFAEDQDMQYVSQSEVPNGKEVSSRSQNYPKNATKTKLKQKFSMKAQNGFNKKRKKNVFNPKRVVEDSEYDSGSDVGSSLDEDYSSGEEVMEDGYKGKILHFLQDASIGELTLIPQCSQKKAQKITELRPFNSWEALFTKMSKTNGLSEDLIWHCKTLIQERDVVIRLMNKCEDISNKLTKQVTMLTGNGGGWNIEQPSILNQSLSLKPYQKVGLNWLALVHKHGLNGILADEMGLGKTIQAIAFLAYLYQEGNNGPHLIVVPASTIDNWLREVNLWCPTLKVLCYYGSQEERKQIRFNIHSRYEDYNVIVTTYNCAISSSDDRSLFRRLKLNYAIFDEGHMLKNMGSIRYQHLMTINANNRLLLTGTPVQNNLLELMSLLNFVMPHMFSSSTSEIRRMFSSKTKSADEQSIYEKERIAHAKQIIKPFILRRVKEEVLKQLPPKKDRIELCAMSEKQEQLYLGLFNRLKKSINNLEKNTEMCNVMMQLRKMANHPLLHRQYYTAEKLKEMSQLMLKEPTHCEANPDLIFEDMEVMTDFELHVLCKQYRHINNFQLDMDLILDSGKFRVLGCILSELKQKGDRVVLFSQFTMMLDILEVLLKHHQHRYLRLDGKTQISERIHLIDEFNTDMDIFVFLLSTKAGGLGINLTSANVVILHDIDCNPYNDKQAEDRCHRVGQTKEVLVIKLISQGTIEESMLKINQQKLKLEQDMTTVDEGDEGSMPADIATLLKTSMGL

[2] = biological target: T2, 23A SMARCAD1, phosphorylated (human) (UniProt Q9H4L7); assay: fluorescence polarization; details: FP: 50 mM HEPES pH 7.5, 2 mM DTT, 10% glycerol, 0.01% CHAPS, 0.01% NP-40, no added salt stated, room temperature 30 min, 10 nM nucleosome or DNA, 0-5 uM …
T2 sequence: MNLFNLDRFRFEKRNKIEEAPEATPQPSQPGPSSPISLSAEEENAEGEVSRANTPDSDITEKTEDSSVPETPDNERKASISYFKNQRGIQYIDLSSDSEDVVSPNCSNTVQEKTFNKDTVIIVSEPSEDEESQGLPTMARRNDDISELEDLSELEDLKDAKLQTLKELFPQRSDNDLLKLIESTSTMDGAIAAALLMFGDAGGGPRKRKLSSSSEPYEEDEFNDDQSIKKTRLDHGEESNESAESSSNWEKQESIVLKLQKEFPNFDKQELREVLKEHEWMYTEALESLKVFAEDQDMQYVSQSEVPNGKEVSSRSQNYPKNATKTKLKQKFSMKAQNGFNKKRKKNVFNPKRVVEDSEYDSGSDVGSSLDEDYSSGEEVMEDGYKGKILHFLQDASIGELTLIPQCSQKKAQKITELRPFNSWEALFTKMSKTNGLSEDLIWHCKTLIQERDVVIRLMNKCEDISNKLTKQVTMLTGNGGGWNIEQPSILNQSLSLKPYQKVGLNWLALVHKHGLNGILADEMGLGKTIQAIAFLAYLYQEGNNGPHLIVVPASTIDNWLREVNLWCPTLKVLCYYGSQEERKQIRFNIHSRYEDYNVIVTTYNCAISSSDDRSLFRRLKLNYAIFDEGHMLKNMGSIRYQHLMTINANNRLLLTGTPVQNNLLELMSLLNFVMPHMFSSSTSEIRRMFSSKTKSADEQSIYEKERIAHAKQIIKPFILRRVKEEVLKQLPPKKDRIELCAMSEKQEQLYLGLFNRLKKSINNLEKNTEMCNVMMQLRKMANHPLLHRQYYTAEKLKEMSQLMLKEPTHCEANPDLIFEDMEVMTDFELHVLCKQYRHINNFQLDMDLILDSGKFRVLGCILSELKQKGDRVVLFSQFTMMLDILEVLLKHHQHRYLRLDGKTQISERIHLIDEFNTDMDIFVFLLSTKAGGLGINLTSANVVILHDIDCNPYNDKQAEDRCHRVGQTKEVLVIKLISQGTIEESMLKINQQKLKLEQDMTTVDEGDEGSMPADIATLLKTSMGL

[3] = biological target: T3, Δ350 SMARCAD1, dephosphorylated V974A;del1-350 (human) (UniProt Q9H4L7); assay: fluorescence polarization; details: FP: 50 mM HEPES pH 7.5, 2 mM DTT, 10% glycerol, 0.01% CHAPS, 0.01% NP-40, no added salt stated, room temperature 30 min; 10 nM nucleosome or DNA, 0-5 uM …
T3 sequence: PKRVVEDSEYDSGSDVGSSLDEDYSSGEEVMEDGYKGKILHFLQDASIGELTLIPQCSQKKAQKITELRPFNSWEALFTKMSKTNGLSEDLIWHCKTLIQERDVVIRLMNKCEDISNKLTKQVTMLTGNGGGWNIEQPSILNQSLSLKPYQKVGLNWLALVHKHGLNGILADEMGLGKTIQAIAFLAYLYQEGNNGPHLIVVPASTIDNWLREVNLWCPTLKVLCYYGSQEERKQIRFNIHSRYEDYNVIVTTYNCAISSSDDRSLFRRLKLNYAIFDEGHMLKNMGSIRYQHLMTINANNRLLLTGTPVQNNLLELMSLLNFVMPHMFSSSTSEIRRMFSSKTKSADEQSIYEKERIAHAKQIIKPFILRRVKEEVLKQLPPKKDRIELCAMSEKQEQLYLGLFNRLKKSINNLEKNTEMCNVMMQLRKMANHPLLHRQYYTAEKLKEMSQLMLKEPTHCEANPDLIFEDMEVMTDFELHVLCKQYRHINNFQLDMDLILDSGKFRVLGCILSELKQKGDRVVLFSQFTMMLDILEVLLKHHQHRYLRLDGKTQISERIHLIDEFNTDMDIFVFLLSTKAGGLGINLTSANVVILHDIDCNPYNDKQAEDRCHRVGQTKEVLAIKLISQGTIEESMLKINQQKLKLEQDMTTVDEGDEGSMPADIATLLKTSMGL

[4] = biological target: nucleosome: histone octamer with Alexa Fluor 488 on histone H4 E63C assembled onto a 165 bp DNA (human) (UniProt P04908)
[5] = biological target: (H3-H4)2 tetramer (fluorescently labeled with Alexa Fluor 488 on H4 at E63C) (human) (UniProt P68431); assay: fluorescence polarisation; 5 nM Alexa Fluor 488-labeled H2A-H2B dimer or (H3-H4)2 tetramer, SMARCAD1 titrated 0-2500 nM; 2 mM DTT, 10% glycerol, 50 mM HEPES pH 7.5, 0.01% CHAPS, 0.01% NP-40, 300 mM KCl; room temperature, 30 min; hyperbolic fit
[6] = biological target: nucleosome: histone octamer with Alexa Fluor 488 on histone H4 E63C assembled onto a 165 bp DNA (human) (UniProt P04908); assay: fluorescence polarisation; 10 nM Alexa Fluor 488-labeled nucleosome (165 bp DNA), SMARCAD1 titrated 0-5 μM; 2 mM DTT, 10% glycerol, 50 mM HEPES pH 7.5, 0.01% CHAPS, 0.01% NP-40; room temperature, 30 min; hyperbolic fit
[7] = biological target: T4, Δ350 SMARCAD1, dephosphorylated (human, UniProt Q9H4L7 351-1026, V974A;del1-350); assay: fluorescence polarization; dephosphorylated (CIP); FP: 50 mM HEPES pH 7.5, 2 mM DTT, 10% glycerol, 0.01% CHAPS, 0.01% NP-40, no added salt stated, room temperature 30 min; 10 nM nucleosome or DNA, 0-5 uM SMARCAD1; details: protein: recombinant; tags: 6xHis; label: Alexa Fluor 488 and Alexa Fluor 647 (labeled PCR primers); blunt
T4 sequence: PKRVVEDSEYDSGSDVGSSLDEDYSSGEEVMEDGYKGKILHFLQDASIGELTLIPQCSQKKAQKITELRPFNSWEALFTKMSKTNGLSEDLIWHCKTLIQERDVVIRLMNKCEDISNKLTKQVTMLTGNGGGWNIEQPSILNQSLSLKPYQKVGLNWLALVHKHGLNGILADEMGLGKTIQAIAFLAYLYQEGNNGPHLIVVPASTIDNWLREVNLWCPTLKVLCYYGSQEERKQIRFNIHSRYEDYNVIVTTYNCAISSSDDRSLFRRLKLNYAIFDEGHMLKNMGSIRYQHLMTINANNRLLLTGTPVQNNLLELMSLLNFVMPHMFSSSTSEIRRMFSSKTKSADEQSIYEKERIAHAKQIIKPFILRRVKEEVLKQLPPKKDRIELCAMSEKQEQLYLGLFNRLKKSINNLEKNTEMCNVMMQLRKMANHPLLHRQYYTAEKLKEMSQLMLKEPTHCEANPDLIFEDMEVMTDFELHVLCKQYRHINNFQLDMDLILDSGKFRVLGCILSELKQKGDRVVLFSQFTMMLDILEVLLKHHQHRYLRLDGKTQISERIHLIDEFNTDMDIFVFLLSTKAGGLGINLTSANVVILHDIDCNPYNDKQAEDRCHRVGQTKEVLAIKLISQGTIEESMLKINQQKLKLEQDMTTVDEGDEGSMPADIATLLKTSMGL

[8] = biological target: T5, WT SMARCAD1, dephosphorylated (human, UniProt Q9H4L7 1-1026, V974A); assay: as above; details: protein: recombinant; tags: 6xHis (C- or N-terminal); label: Alexa Fluor 488 and Alexa Fluor 647 (labeled PCR primers); blunt
T5 sequence: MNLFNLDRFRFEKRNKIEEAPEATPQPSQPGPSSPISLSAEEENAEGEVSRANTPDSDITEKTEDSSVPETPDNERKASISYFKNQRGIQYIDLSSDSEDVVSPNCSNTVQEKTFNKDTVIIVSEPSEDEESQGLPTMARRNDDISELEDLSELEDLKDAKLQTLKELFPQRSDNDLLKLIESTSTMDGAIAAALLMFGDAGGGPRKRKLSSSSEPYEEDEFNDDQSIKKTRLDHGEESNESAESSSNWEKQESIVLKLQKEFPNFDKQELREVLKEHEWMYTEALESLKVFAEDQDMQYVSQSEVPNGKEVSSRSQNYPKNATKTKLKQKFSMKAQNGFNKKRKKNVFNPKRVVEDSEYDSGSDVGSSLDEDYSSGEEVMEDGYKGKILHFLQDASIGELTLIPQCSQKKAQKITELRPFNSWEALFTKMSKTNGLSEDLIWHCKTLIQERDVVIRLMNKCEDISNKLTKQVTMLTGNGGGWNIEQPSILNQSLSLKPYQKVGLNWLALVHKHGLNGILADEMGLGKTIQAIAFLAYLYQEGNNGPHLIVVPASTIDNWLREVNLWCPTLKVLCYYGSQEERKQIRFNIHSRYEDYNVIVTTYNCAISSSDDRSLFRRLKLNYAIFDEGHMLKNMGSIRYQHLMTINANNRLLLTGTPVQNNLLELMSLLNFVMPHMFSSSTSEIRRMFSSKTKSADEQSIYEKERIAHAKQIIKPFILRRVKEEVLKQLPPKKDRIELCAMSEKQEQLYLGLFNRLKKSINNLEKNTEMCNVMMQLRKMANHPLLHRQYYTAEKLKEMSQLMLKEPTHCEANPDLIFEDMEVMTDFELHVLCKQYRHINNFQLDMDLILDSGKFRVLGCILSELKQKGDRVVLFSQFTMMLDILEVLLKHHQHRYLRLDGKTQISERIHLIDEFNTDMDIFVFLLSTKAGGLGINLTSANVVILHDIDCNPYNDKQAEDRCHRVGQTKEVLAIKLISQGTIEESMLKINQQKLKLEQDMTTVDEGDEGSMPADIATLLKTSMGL

CGAGCCAGGCCTGAGAATCCGGTGCCGAGGCCGCTCAATTGGTCGTAGACAGCTCTAGCACCGCTTAAACGCACGTACGCGCTGTCCCCCGCGTTTTAACCGCCAAGGGGATTACTCCCTAGTCTCCAGGCACGTGTCAGATATATACATCCAGGCCTTGTGTCG (double strand) [165 bp 601 nucleosome (7N11)]
Kd ([1]; dephosphorylated (CIP)): 71 nM | Kd ([2]; phosphorylated): 213 nM | Kd [3]: 114 nM

phosphorylated Δ350 SMARCAD1 (from UniProt Q9H4L7 351-1026) (domain or fragment)
ATP hydrolysis rate with nucleosome as activator (1 μM SMARCAD1, 1 μM nucleosome; NADH-coupled assay) [4]: 118 nM/s | Kd [5]: 495 nM

CGAGCCAGGCCTGAGAATCCGGTGCCGAGGCCGCTCAATTGGTCGTAGACAGCTCTAGCACCGCTTAAACGCACGTACGCGCTGTCCCCCGCGTTTTAACCGCCAAGGGGATTACTCCCTAGTCTCCAGGCACGTGTCAGATATATACATCCAGGCCTTGTGTCG (double strand) [165 bp 601 DNA]
Kd [1]: 28 nM | Kd [2]: 49 nM

dephosphorylated Δ350 SMARCAD1 (from UniProt Q9H4L7 351-1026) (domain or fragment)
Kd [6]: 114 nM

phosphorylated wild type SMARCAD1 (from UniProt Q9H4L7 1-1026) (enzyme)
ATP hydrolysis rate with nucleosome as activator (1 μM SMARCAD1, 1 μM nucleosome; NADH-coupled assay) [4]: 30 nM/s | Kd [5]: 151 nM

B1: 165 bp 601 DNA (dsDNA)
DNA 1: CGAGCCAGGCCTGAGAATCCGGTGCCGAGGCCGCTCAATTGGTCGTAGACAGCTCTAGCACCGCTTAAACGCACGTACGCGCTGTCCCCCGCGTTTTAACCGCCAAGGGGATTACTCCCTAGTCTCCAGGCACGTGTCAGATATATACATCCAGGCCTTGTGTCG
DNA 2: CGACACAAGGCCTGGATGTATATATCTGACACGTGCCTGGAGACTAGGGAGTAATCCCCTTGGCGGTTAAAACGCGGGGGACAGCGCGTACGTGCGTTTAAGCGGTGCTAGAGCTGTCTACGACCAATTGAGCGGCCTCGGCACCGGATTCTCAGGCCTGGCTCG
Kd [7]: 60 ± 18 nM | Kd [8]: 26 ± 9 nM
